Each block holds one binder with its values, some of them ahead of it.
How the values were obtained:
[1] = target: T1, CD11b (mouse), on the CD11b+ mutuDC dendritic cell line and on cells of lymphoid organs (mouse, UniProt P05555 17-1153); test: FACS, CD11b+ mutuDC dendritic cell line stained in vitro with Alexa647-labeled DC13 monomer or dimer; reference DC13 monomer
T1 construct: whole, on cells; Its partner chain on the cell surface is not mentioned
From the text: Cells were harvested and analyzed with FACS.
Four sortase substrates were designed and synthesized for production of dimers or PEGylated VHHs (FIG. 1). The substrates either contain two bioorthogonal handles or a handle and a flourophore. The Alexa647-labeled substrate was designed such that the reaction products could be used in FACS experiments to estimate relative in vitro binding affinities. […] The dimers were produced as exemplified in FIG. 2. For DC8 (anti Class II), splenocytes were stained with different concentrations of monomers and dimers and analyzed by FACS. For DC13 (anti CD11b), the CD11b⁺ mutuDC dendritic cell line was used. For Class II MHC and CD11b, VHH dimers bind approximately 3.3 and 2.3-fold better than their corresponding monomers respectively (FIG. 3). The in vivo binding characteristics of the VHH dimers versus monomers were evaluated. Due to the more abundant expression of Class II MHC molecules on splenocytes compared to that of CD11b, the in vivo binding affinity for anti-Class II dimers was explored. Mice were injected i.v. with equal amounts of monomers and dimers (0.25 nmol) of DC8. 2 h p.i., mice were euthanized and lymphoid organs were excised for examination. Monomers and dimers yielded different staining patterns (FIG. 3B), with the dimer showing interspersed yet more pronounced staining than the monomer, corroborating the FACS results. […]

[2] = target: Class II MHC (mouse), on splenocytes and lymphoid organ cells (mouse); test: FACS, splenocytes stained in vitro with different concentrations of Alexa647-labeled DC8 monomer or dimer; reference DC8 monomer
[3] = target: Class II MHC (mouse), on splenocytes and lymphoid organ cells (mouse); test: FACS of spleen cells harvested 3 h after i.v. injection of Alexa647-labeled VHH into B6 mice; reference non-PEGylated DC8-Alexa647
[4] = target: Class II MHC (mouse), on splenocytes and lymphoid organ cells (mouse); test: FACS of spleen cells harvested 3 h after i.v. injection of Alexa647-labeled VHH into B6 mice; reference non-PEGylated DC8-Alexa647; no staining in the spleen of an MHC II-/- mouse

Chain of Class II MHC (mouse), on splenocytes and lymphoid organ cells (mouse) (P14434 24-256, chain 1 of 2): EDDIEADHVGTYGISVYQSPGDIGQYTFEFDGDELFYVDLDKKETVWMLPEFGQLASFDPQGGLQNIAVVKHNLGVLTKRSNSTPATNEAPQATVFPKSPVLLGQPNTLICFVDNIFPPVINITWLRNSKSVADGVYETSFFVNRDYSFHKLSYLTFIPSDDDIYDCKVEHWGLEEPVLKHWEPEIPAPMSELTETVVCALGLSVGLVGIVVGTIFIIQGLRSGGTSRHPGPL
Chain of Class II MHC (mouse), on splenocytes and lymphoid organ cells (mouse) (P14483 28-265, chain 2 of 2, further chain): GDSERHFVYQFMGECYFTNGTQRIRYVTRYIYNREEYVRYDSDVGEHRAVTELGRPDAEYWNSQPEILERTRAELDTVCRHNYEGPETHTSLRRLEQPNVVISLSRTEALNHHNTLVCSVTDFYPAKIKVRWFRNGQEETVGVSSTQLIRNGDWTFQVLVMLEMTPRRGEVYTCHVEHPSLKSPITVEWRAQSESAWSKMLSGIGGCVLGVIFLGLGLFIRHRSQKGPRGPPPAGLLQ
T1 sequence (P05555 17-1153): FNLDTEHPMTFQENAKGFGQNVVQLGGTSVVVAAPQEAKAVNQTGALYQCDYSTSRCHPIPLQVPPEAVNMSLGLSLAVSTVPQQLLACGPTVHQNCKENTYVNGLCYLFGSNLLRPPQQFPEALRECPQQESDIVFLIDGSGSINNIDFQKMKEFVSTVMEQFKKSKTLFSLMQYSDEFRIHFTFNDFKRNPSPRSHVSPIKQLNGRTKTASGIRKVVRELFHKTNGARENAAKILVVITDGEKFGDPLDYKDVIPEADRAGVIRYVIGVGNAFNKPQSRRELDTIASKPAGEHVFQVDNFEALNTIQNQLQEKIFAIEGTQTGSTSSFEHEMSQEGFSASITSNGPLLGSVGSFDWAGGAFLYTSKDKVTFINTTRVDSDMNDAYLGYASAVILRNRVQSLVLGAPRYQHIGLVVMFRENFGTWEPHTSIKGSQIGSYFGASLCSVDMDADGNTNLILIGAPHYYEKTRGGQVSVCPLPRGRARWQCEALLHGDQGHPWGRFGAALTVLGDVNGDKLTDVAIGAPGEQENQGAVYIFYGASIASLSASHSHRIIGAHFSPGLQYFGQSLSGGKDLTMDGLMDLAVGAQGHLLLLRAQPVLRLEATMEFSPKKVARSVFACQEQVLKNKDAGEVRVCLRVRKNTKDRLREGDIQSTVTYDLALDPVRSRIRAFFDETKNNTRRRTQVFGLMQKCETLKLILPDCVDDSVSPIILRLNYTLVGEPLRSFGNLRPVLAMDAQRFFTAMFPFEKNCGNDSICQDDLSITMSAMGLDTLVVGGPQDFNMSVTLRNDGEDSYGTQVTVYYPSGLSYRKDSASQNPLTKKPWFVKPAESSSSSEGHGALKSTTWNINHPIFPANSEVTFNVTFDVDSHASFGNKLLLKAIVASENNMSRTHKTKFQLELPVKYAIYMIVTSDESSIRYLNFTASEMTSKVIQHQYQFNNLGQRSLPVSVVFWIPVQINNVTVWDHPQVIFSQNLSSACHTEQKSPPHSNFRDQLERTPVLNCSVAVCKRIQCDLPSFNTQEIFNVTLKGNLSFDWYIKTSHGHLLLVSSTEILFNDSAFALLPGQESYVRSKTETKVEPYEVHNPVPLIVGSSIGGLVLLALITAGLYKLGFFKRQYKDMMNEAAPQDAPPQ

B3: DC8-Alexa647-PEG-5 kDa (PEGylated DC8, 5 kDa PEG) (VHH)
VHH: QVQLQESGGGLVQPGGSLRLSCTASGFTFSTYYMSWVRKAPGKGPEWVSVMNSSGGDTRYADFVKGRFTISRDNAKNTLYLQMNSLKPEDTALYYCAQGRSDIYPTFTRGQGTQVTVSS
modifications: Sortagged at LPET with (Gly)3-PEG12-Cys(X)-PEG5-Lys(azide), where X is Alexa647, Texas Red or TCO/18F-tetrazine. DBCO-PEG 5 kDa is clicked onto the azide.
- increase in staining versus non-PEGylated DC8 [3]: 30%

B5: DC8-Alexa647-PEG-10 kDa (PEGylated DC8, 10 kDa PEG) (VHH)
VHH: B3 VHH
modifications: Sortagged at LPET with (Gly)3-PEG12-Cys(X)-PEG5-Lys(azide), where X is Alexa647, Texas Red or TCO/18F-tetrazine. DBCO-PEG 10 kDa is clicked onto the azide.
- increase in staining versus non-PEGylated DC8 [3]: 100%

Results, then the binder that gave them:

- fold better binding than the corresponding monomer [1]: ~2.3 fold
B1: DC13-dimer (bivalent DC13, two DC13 VHHs joined through their C-termini) (VHH)
VHH: QVQLQESGGGLVQTGGSLRLSCAASGVDFNWYSMGWFRQAPGKEREYVASIDQGGELDYAISVKGRFTISRDNAKNMVYLQMNSLKPEDTAVYYCAADFSGRGASNPDKYKYWGQGTQVTVSS
modifications: Each chain is sortagged at LPET. One carries (Gly)3-Cys(maleimide-DBCO), the other (Gly)3-PEG12-Cys(X)-PEG5-Lys(azide), where X is Alexa647, Texas Red or TCO/18F-tetrazine. The two chains are joined C-terminus to C-terminus by DBCO-azide click chemistry.
notes: This is a chemical C-to-C dimer; also called anti CD11b dimer; 18F-DC13 dimer

- fold better binding than the corresponding monomer [2]: 3.3 fold
B2: DC8-dimer (bivalent DC8, two DC8 VHHs joined through their C-termini) (VHH)
VHH: B3 VHH
modifications: Each chain is sortagged at LPET. One carries (Gly)3-Cys(maleimide-DBCO), the other (Gly)3-PEG12-Cys(X)-PEG5-Lys(azide), where X is Alexa647, Texas Red or TCO/18F-tetrazine. The two chains are joined C-terminus to C-terminus by DBCO-azide click chemistry.

- increase in staining versus non-PEGylated DC8 [4]: 220%
B4: DC8-Alexa647-PEG-20 kDa (PEGylated DC8, 20 kDa PEG) (VHH)
VHH: B3 VHH
modifications: Sortagged at LPET with (Gly)3-PEG12-Cys(X)-PEG5-Lys(azide), where X is Alexa647, Texas Red or TCO/18F-tetrazine. DBCO-PEG 20 kDa is clicked onto the azide.
